From doi:10.1101/2023.06.06.543845

Target: Mycobacterium thermoresistibile NrdI (Mycobacterium thermoresistibile)
Assay: cryo-EM structure

Mycobacterium thermoresistibile NrdF2 (enzyme)
stoichiometry N (NrdF2 per NrdI): 2
